In the Immune Epitope Database (IEDB):

How the values were obtained:
HLA-A*02:01 = assay: IEDB peptide-MHC binding, purified MHC/direct/fluorescence; filed as Kd, often an IC50 or EC50 that approximates it; ≥ and ≤ were set here for values at or beyond the usual limits of such assays
HLA-A*11:01 = assay: as above
HLA-A*26:03 = assay: as above
HLA-A*31:01 = assay: as above
HLA-A*68:02 = assay: as above
HLA-A*69:01 [1] = assay: as above
HLA-B*07:02 = assay: as above
HLA-B*08:01 = assay: as above; settings: source organism: Francisella tularensis subsp. holarctica LVS
HLA-B*15:01 = assay: as above
HLA-B*15:09 = assay: as above; settings: source organism: Francisella tularensis subsp. tularensis FSC033
HLA-B*18:01 [2] = assay: as above
HLA-B*39:01 [3] = assay: as above; settings: source organism: Francisella tularensis subsp. tularensis FSC033
HLA-B*57:01 = assay: as above
HLA-B*58:01 = assay: as above
HLA-A*01:01 [4] = assay: IEDB peptide-MHC binding, purified MHC/competitive/fluorescence; filed as Kd, often an IC50 or EC50 that approximates it; ≥ and ≤ were set here for values at or beyond the usual limits of such assays; settings: source organism: Francisella tularensis subsp. tularensis FSC198
HLA-A*26:01 = assay: as above
HLA-A*26:02 = assay: as above; settings: source organism: Francisella tularensis subsp. tularensis FSC198
HLA-A*01:01 [5] = assay: IEDB peptide-MHC binding, purified MHC/direct/fluorescence; filed as Kd, often an IC50 or EC50 that approximates it; ≥ and ≤ were set here for values at or beyond the usual limits of such assays
HLA-A*02:03 = assay: as above; settings: source organism: Choclo virus
HLA-A*02:12 = assay: as above; settings: source organism: Choclo virus
HLA-A*02:19 = assay: as above; settings: source organism: Choclo virus
HLA-A*03:01 = assay: as above
HLA-A*23:01 = assay: as above; settings: source organism: Choclo virus
HLA-A*24:03 = assay: as above; settings: source organism: Choclo virus
HLA-C*03:03 = assay: as above; settings: source organism: Orthohantavirus khabarovskense
HLA-C*08:02 = assay: as above; settings: source organism: Orthohantavirus khabarovskense
HLA-C*12:03 = assay: as above; settings: source organism: Orthohantavirus khabarovskense
HLA-A*69:01 [6] = assay: IEDB peptide-MHC binding, purified MHC/competitive/fluorescence; filed as Kd, often an IC50 or EC50 that approximates it; ≥ and ≤ were set here for values at or beyond the usual limits of such assays; settings: source organism: Orthohantavirus khabarovskense
HLA-B*18:01 [7] = assay: as above; settings: source organism: Orthohantavirus khabarovskense
HLA-B*27:03 = assay: as above; settings: source organism: Orthohantavirus khabarovskense
HLA-B*35:01 = assay: as above; settings: source organism: Orthohantavirus khabarovskense
HLA-B*39:01 [8] = assay: as above; settings: source organism: Orthohantavirus khabarovskense
HLA-B*46:01 [9] = assay: as above; settings: source organism: Orthohantavirus khabarovskense
HLA-B*08:02 = assay: IEDB peptide-MHC binding, purified MHC/direct/fluorescence; filed as Kd, often an IC50 or EC50 that approximates it; ≥ and ≤ were set here for values at or beyond the usual limits of such assays; settings: source organism: Orthomarburgvirus marburgense
HLA-B*15:17 = assay: as above; settings: source organism: Marburg virus - Musoke, Kenya, 1980
HLA-B*27:05 = assay: as above; settings: source organism: Marburg virus - Musoke, Kenya, 1980
HLA-B*40:01 = assay: as above; settings: source organism: Marburg virus - Musoke, Kenya, 1980
HLA-B*46:01 [10] = assay: as above; settings: source organism: Marburg virus - Musoke, Kenya, 1980
HLA-B*48:01 = assay: as above; settings: source organism: Marburg virus - Musoke, Kenya, 1980
HLA-A*68:23 = assay: IEDB peptide-MHC binding, purified MHC/competitive/fluorescence; filed as Kd, often an IC50 or EC50 that approximates it; ≥ and ≤ were set here for values at or beyond the usual limits of such assays; settings: source organism: human gammaherpesvirus 4
HLA-B*15:42 = assay: as above; settings: source organism: human gammaherpesvirus 4
HLA-B*45:06 = assay: as above; settings: source organism: human gammaherpesvirus 4
HLA-B*83:01 = assay: as above; settings: source organism: human gammaherpesvirus 4
HLA-C*14:02 = assay: as above; settings: source organism: human gammaherpesvirus 4
[11] = source organism: Francisella tularensis subsp. holarctica LVS
[12] = source organism: Francisella tularensis subsp. tularensis FSC033
[13] = source organism: Orthohantavirus andesense
[14] = source organism: Marburg virus - Musoke, Kenya, 1980

EFKQILTDF was tested, and the Kd (HLA-A*02:01; [11]) was ≥ 20 µM, the Kd (HLA-A*11:01; [11]) was ≥ 20 µM and the Kd (HLA-A*26:03; [12]) was ≥ 20 µM. The Kd (HLA-A*31:01; [11]) was ≥ 20 µM, the Kd (HLA-A*68:02; [11]) was ≥ 20 µM and the Kd (HLA-A*69:01 [1]; [11]) was ≥ 20 µM. For the same sequence, the Kd (HLA-B*07:02; [11]) was ≥ 20 µM, the Kd (HLA-B*08:01) was 6 µM and the Kd (HLA-B*15:01; [11]) was ≥ 20 µM. For the same sequence, the Kd (HLA-B*15:09) was ≥ 20 µM, the Kd (HLA-B*18:01 [2]; [12]) was 1.03 µM and the Kd (HLA-B*39:01 [3]) was ≥ 20 µM. The Kd (HLA-B*57:01; [11]) was ≥ 20 µM, the Kd (HLA-B*58:01; [11]) was ≥ 20 µM and the Kd (HLA-A*01:01 [4]) was ≥ 20 µM. For the same sequence, the Kd (HLA-A*26:01; source organism: Francisella tularensis subsp. tularensis FSC198) was ≥ 20 µM and the Kd (HLA-A*26:02) was 0.457 µM.
For FSLPSSSSY, the Kd (HLA-A*01:01 [5]; [13]) was 0.377 µM, the Kd (HLA-A*02:03) was ≥ 20 µM and the Kd (HLA-A*02:12) was ≥ 20 µM. The Kd (HLA-A*02:19) was ≥ 20 µM, the Kd (HLA-A*03:01; source organism: Choclo virus) was ≥ 20 µM and the Kd (HLA-A*23:01) was ≥ 20 µM. For the same sequence, the Kd (HLA-A*24:03) was ≥ 20 µM, the Kd (HLA-A*68:02; source organism: Choclo virus) was ≥ 20 µM and the Kd (HLA-B*58:01; [13]) was 0.0218 µM. For the same sequence, the Kd (HLA-C*03:03) was 0.028 µM, the Kd (HLA-C*08:02) was ≥ 20 µM and the Kd (HLA-C*12:03) was 0.043 µM. For the same sequence, the Kd (HLA-A*26:01; source organism: Orthohantavirus khabarovskense) was ≥ 20 µM, the Kd (HLA-A*69:01 [6]) was ≥ 20 µM and the Kd (HLA-B*18:01 [7]) was ≥ 20 µM. The Kd (HLA-B*27:03) was ≥ 20 µM, the Kd (HLA-B*35:01) was ≤ 0.0001 µM and the Kd (HLA-B*39:01 [8]) was ≥ 20 µM. For the same sequence, the Kd (HLA-B*46:01 [9]) was 0.0707 µM.
KLDFIRNTK was tested, and the Kd (HLA-A*01:01 [5]; [14]) was ≥ 20 µM, the Kd (HLA-A*02:01; [14]) was ≥ 20 µM and the Kd (HLA-A*03:01; [14]) was 0.0444 µM. The Kd (HLA-A*11:01; [14]) was 0.604 µM, the Kd (HLA-A*26:03; source organism: Orthomarburgvirus marburgense) was ≥ 20 µM and the Kd (HLA-A*31:01; [14]) was 2.16 µM. The Kd (HLA-A*68:02; [14]) was ≥ 20 µM, the Kd (HLA-A*69:01 [1]; [14]) was ≥ 20 µM and the Kd (HLA-B*07:02; [14]) was ≥ 20 µM. The Kd (HLA-B*08:02) was ≥ 20 µM, the Kd (HLA-B*15:01; [14]) was ≥ 20 µM and the Kd (HLA-B*15:17) was ≥ 20 µM. For the same sequence, the Kd (HLA-B*18:01 [2]; [14]) was ≥ 20 µM, the Kd (HLA-B*27:05) was ≥ 20 µM and the Kd (HLA-B*40:01) was ≥ 20 µM. For the same sequence, the Kd (HLA-B*46:01 [10]) was ≥ 20 µM, the Kd (HLA-B*48:01) was ≥ 20 µM and the Kd (HLA-B*57:01; [14]) was ≥ 20 µM. The Kd (HLA-B*58:01; [14]) was ≥ 20 µM.
For YTGAMTSKF, the Kd (HLA-A*68:23) was 0.0715 µM, the Kd (HLA-B*15:42) was ≥ 5 µM and the Kd (HLA-B*45:06) was ≥ 5 µM. The Kd (HLA-B*83:01) was ≥ 5 µM and the Kd (HLA-C*14:02) was 0.394 µM.
